According to patent US20240343803A1 (SHANDONG SIMCERE BIOPHARMACEUTICAL, published 2024):
Numbering of substitutions follows the chain as printed.

T1: human PVRIG-his (AcroBiosystems, Cat NO. PVG-H52H4) (human, UniProt Q6DKI7 41-171, limits assumed)
T1 construct: also called human PVRIG protein
T1 sequence (looked up): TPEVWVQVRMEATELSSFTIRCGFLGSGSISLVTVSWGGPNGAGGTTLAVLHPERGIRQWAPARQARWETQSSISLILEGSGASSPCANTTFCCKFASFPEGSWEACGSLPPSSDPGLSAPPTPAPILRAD

T2: cynomolgus monkey PVRIG (Novoprotein, Cat NO. C09B) (cynomolgus monkey, UniProt A0A2K5WVV8 41-171)
T2 construct: also called cynomolgus monkey PVRIG protein
T2 sequence: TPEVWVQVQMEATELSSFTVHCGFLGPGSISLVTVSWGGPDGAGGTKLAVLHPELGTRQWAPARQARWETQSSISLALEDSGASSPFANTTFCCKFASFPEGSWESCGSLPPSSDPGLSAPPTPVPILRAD

B1: PVRIG-A118-H4 (Fc fusion)
chain: EVQLVESGGGLVQPGGSLRLSCAASETYFDLYVMGWYRQAPGKDRELVATITYTGSIKYVDSVKGRFTISRGDAKNSLSLQMNSLRAEDTAVYYCNADPSGLGRKVYWGQGTMVTVSS
notes: humanized variant of PVRIG-A118; also called A118.VH4; not shown: constant part not restated for the humanized forms; parents are VHH-hinge-CH2-CH3 of human IgG1; detected by anti-human
B2: PVRIG-A118-H5 (Fc fusion)
chain: B1 chain with L78V, S79Y
notes: humanized variant of PVRIG-A118; also called A118.VH5; not shown: constant part not restated for the humanized forms; parents are VHH-hinge-CH2-CH3 of human IgG1; detected by anti-human
B3: PVRIG-A118-H6 (Fc fusion)
chain: B1 chain with Y59I, S79Y
notes: humanized variant of PVRIG-A118; also called A118.VH6; not shown: constant part not restated for the humanized forms; parents are VHH-hinge-CH2-CH3 of human IgG1; detected by anti-human
B4: PVRIG-A105-H4 (Fc fusion)
chain: EVQLVESGGGLVQPGGSLRLSCAASGRTFDRHTMTWFRQAPGKEREFVATASRIPGDTYYSHSVKGRFTISRDNAKNSLYLQMNSLRAEDTAVYYCAATSAYCSEVDCYEKGSWYDNWGQGTMVTVSS
notes: humanized variant of PVRIG-A105; also called A105.VH4; not shown: constant part not restated for the humanized forms; parents are VHH-hinge-CH2-CH3 of human IgG1; detected by anti-human
B5: PVRIG-A105-H3 (Fc fusion)
chain: B4 chain with S61V, H62D, L79V
notes: humanized variant of PVRIG-A105; also called A105.VH3; not shown: constant part not restated for the humanized forms; parents are VHH-hinge-CH2-CH3 of human IgG1; detected by anti-human
B6: PVRIG-A105-H1 (Fc fusion)
chain: B4 chain with T35S, S61V, H62D
notes: humanized variant of PVRIG-A105; also called A105.VH1; not shown: constant part not restated for the humanized forms; parents are VHH-hinge-CH2-CH3 of human IgG1; detected by anti-human
B7: PVRIG-A50-H1b (Fc fusion)
chain: EVQLVESGGGLVQPGGSLRLSCAASGFTFSYYDMSWVRQAPGKGLEWVSTINSDGGRTSYVDSVKGRFTISRDNSKNTLYLQMNSLRAEDTAVYYCVEGDPHNFGLESLSLRDFGSWGQGTMVTVSS
notes: humanized variant of PVRIG-A50; also called A50.VH1b; not shown: constant part not restated for the humanized forms; parents are VHH-hinge-CH2-CH3 of human IgG1; detected by anti-human
B8: PVRIG-A50-H1c (Fc fusion)
chain: B7 chain with S108N, S110A
notes: humanized variant of PVRIG-A50; also called A50.VH1c; not shown: constant part not restated for the humanized forms; parents are VHH-hinge-CH2-CH3 of human IgG1; detected by anti-human
B9: PVRIG-A50-H1e (Fc fusion)
chain: B7 chain with D54N, G55A
notes: humanized variant of PVRIG-A50; also called VH1e; not shown: constant part not restated for the humanized forms; parents are VHH-hinge-CH2-CH3 of human IgG1; detected by anti-human
B10: PVRIG-A50-H2a (Fc fusion)
chain: B7 chain with D54N, G55A, S75T
notes: humanized variant of PVRIG-A50; also called A50.VH2a; not shown: constant part not restated for the humanized forms; parents are VHH-hinge-CH2-CH3 of human IgG1; detected by anti-human
B11: PVRIG-A50-H1a (Fc fusion)
chain: B7 chain with S108N
notes: humanized variant of PVRIG-A50; also called A50.VH1a; not shown: constant part not restated for the humanized forms; parents are VHH-hinge-CH2-CH3 of human IgG1; detected by anti-human
B12: PVRIG-A118 (Fc fusion)
chain: QVQLVESGGGLVQAGGSLRLSCAASETYFDLYVMGWYRQAPGKDRELVATITYTGSIKIVDSVKDRFTISRGDAKNTVSLQMSSLKPEDTAVYFCNADPSGLGRKVYWGQGTQVTVSS
notes: heavy chain antibody VHH-hinge-CH2-CH3, human IgG1 constant part; not shown: human IgG1 hinge-CH2-CH3
B13: PVRIG-A105 (Fc fusion)
chain: B4 chain with P14A, S78T, L79V, M83L, S85N, R87K, A88P, T122I, M123Q
notes: as for B12
B14: PVRIG-A50 (Fc fusion)
chain: B7 chain with D54N, S75T, R87K, A88P, S108N, M122Q
notes: heavy chain antibody VHH-hinge-CH2-CH3, human IgG1 constant part; also called PVRIG-50; not shown: human IgG1 hinge-CH2-CH3

biological target: T1, human PVRIG-his (AcroBiosystems, Cat …); assay: ELISA, antigen coated
Experimental: (§1) The ELISA plate was pre-coated with 100 μL/well of 0.5 μg/mL human PVRIG-his (AcroBiosystems, Cat NO. PVG-H52H4) or cynomolgus monkey PVRIG (Novoprotein, Cat NO. C09B). The tested anti-PVRIG humanized antibodies were serially diluted (initial concentration 3 nM, 3-fold serial dilution), added into the plate (100 μL/well) and incubated with shaking at room temperature for 1.5 hours. […] A HRP substrate, TMB (Thermo, Cat NO. 34029) was added into wells after washing the plate again for color development. After adding a termination solution to terminate the reaction, the absorbance value was read by a microplate reader (MD i3×). An antibody binding curve was drawn with concentration of antibodies as the abscissa and the corresponding OD value as the ordinate. The EC50 value was calculated by using a Four Parameter Logistic Fit (GraphPadPrism9). The smaller the EC50 value, the stronger the ability of the antibodies binds to human or cynomolgus monkey PVRIG. The binding effect of the humanized antibodies was normalized to the corresponding parental antibodies. If the percentage value is higher than 100%, the binding effect of humanized antibodies is better than that of parental antibody.

% relative activity parental antibody/tested antibody	EC50	Binder
95.8%	0.0522 nM	B1
104%	0.0481 nM	B2
90.8%	0.0551 nM	B3
140%	0.0521 nM	B4
125%	0.0585 nM	B5
150%	0.0487 nM	B6
111%	0.0819 nM	B7
87.3%	0.105 nM	B8
116%	0.0791 nM	B9
140%	0.0655 nM	B10
92.4%	0.099 nM	B11

biological target: T2, cynomolgus monkey PVRIG (Novoprotein, …); assay: ELISA, antigen coated
Experimental: as §1

% relative activity parental antibody/tested antibody	EC50	Binder
37.1%	0.0729 nM	B1
40.2%	0.0673 nM	B2
48.4%	0.0559 nM	B3
89.4%	0.0361 nM	B4
91.7%	0.0352 nM	B5
107%	0.0303 nM	B6
75.8%	0.161 nM	B7
69.5%	0.177 nM	B8
89.5%	0.138 nM	B9
68.3%	0.18 nM	B10
66.4%	0.185 nM	B11

biological target: T1, human PVRIG-his (AcroBiosystems, Cat …); assay: SPR (BIAcore), antibody captured on Protein A chip, human PVRIG-His analyte
Experimental: Biacore was used to detect the specific binding between anti-PVRIG antibody and human PVRIG protein. Protein A chip was used in the BIAcore assay. The time required for the chip to capture the diluted antibody and saturate the binding antigen to reach Rₘₐₓ (Maximum binding capacity, 50 RU) was measured by manual run. […] The affinity of antibody for antigen was measured by multi-cycle kinetics. In each cycle, the antibodies were injected prior to the injection of gradient concentraions of PVRIG proteins allowing the occurrence of antibody-antigen association and dissociation After each cycle, the Protein A chip was regenerated by Glycine, pH 1.5 (to remove the proteins on the chip). The affinity of antibody for antigen was calculated by BIAcore T200 analysis software.
The methods refer to Example 10.

Kd	koff	kon	Binder
0.483 nM	0.00102 s⁻¹	2.12e+06 M⁻¹ s⁻¹	B12
1.21 nM	0.00327 s⁻¹	2.69e+06 M⁻¹ s⁻¹	B1
1.37 nM	0.00383 s⁻¹	2.79e+06 M⁻¹ s⁻¹	B2
1.1 nM	0.00299 s⁻¹	2.71e+06 M⁻¹ s⁻¹	B3
0.675 nM	0.000486 s⁻¹	721000 M⁻¹ s⁻¹	B13
0.796 nM	0.000773 s⁻¹	972000 M⁻¹ s⁻¹	B4
0.622 nM	0.000576 s⁻¹	925000 M⁻¹ s⁻¹	B5
0.932 nM	0.0013 s⁻¹	1.39e+06 M⁻¹ s⁻¹	B6
0.043 nM	1.9e-05 s⁻¹	443000 M⁻¹ s⁻¹	B14
0.0804 nM	2.82e-05 s⁻¹	350000 M⁻¹ s⁻¹	B7
0.0462 nM	2.03e-05 s⁻¹	438000 M⁻¹ s⁻¹	B8
0.0551 nM	1.46e-05 s⁻¹	265000 M⁻¹ s⁻¹	B9
0.0585 nM	1.61e-05 s⁻¹	276000 M⁻¹ s⁻¹	B10
0.0451 nM	1.92e-05 s⁻¹	425000 M⁻¹ s⁻¹	B11

biological target: T1, human PVRIG-his (AcroBiosystems, Cat …); assay: competition ELISA, PVRIG-His coated, competitor human PVRL2-mFc; design: AUC: unit not given here
Experimental: The ELISA plate was pre-coated with 100 μL/well of 0.5 μg/mL human PVRIG-his protein (AcroBiosystems, Cat NO. PVG-H52H4). The tested anti-PVRIG antibodies were diluted from the highest concentration of 16 nM (two-fold concentration). The diluted antibodies were mixed with 18 ng/ml human PVRL2-mFc (AcroBiosystems, Cat NO. CD2-H5257) in equal volume, added into the plate (100 μL/well), and incubated with shaking at room temperature for 2.0 hours. […] A HRP substrate, TMB (Thermo, Cat NO. 34029) was added into wells after washing the plate again for color development. After adding a termination solution to terminate the reaction, the absorbance value was read by a microplate reader (MD i3×). An inhibiting curve was drawn with concentration of antibodies as the abscissa and the corresponding OD value as the ordinate. The IC50 value was calculated by using a Four Parameter Logistic Fit (GraphPadPrism9). The smaller the IC50 value, the stronger the ability of the antibodies inhibits the binding between PVRIG and PVRL2. The positive and negative controls are the same as in Example 8.
The methods refer to Example 11. The inhibiting activity of the humanized antibodies was normalized to the corresponding parental antibodies. If the percentage value is higher than 100%, the inhibiting effect of humanized antibodies is better than that of parental antibodies.

% relative activity (AUC) parental antibody/test antibody	% relative activity (IC50) parental antibody/test antibody	AUC	IC50	Binder
112%	120%	1.42	0.462 nM	B1
114%	146%	1.39	0.381 nM	B2
108%	132%	1.47	0.422 nM	B3
109%	107%	2.32	0.686 nM	B4
101%	97.9%	2.52	0.752 nM	B5
112%	133%	2.27	0.555 nM	B6
105%	125%	2	0.847 nM	B7
76.3%	65.9%	2.62	1.18 nM	B8
86.2%	79.5%	2.32	0.977 nM	B9
86.4%	85.3%	2.32	0.911 nM	B10
82.5%	73%	2.43	1.06 nM	B11
